In the test the target is IGF-I receptor (IGF-IR) on P6 cells, which overexpress IGF-IR (UniProt P08069). The test can be described thus: cell-based or functional assay.
Sequence of UniProt P08069 (P08069 31-1367 limits assumed): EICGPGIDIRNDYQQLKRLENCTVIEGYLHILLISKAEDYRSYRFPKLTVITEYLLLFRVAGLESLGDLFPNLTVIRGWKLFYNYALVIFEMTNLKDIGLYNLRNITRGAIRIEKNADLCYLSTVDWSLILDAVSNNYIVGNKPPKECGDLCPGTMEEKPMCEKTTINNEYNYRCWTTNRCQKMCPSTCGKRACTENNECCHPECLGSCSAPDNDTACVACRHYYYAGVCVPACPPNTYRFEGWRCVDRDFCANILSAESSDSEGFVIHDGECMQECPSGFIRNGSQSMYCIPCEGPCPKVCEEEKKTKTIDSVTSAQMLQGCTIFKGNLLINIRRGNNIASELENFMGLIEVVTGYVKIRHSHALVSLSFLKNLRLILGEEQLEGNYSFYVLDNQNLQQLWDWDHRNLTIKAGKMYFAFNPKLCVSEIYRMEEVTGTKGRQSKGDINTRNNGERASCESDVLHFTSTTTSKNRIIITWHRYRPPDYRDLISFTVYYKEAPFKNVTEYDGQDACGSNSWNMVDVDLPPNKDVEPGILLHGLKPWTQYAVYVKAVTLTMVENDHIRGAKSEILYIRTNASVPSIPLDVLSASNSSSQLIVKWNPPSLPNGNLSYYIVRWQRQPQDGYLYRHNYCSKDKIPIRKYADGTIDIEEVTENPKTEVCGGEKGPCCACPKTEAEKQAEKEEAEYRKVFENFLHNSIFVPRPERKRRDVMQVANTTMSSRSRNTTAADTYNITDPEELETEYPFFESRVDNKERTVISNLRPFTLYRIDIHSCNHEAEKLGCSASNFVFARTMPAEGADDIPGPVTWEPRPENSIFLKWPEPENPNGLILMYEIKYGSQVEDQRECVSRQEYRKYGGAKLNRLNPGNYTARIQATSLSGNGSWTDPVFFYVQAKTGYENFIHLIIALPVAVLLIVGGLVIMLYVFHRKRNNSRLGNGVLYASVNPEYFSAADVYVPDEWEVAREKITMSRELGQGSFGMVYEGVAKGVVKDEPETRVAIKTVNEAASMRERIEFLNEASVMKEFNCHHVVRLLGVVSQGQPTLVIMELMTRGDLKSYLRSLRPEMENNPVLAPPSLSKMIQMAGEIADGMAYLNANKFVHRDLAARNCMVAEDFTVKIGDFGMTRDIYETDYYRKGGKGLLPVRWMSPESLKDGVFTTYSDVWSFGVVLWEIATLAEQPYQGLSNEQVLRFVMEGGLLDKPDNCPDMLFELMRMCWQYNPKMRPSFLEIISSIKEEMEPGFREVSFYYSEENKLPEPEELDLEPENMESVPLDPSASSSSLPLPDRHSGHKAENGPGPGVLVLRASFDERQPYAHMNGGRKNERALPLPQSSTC

For “IGF-INN (IGF-IA with N92D and N100D, glycosylation blocked) (from UniProt P05017 49-153) (ligand)”, the KIRA (rel to IStop) came to 0.88; the KIRA Raw (IGF-IR phosphorylation, KIRA assay on P6 cells, conditioned medium) came to 65.8; the KIRA/Total IGF is 42.4.
For “mature IGF-I (murine), produced from the IGF-ISt construct (from UniProt P05017 49-118) (ligand)” the same measures were 1, 39 and 47.9.
Regarding “IGF-IA (murine class I IGF-IA, wild-type construct) (from UniProt P05017 49-153) (ligand)”, the IGF-IR phosphorylation per IGF molecule against mature IGF-I (KIRA, 4 experiments) turned out to be 30 % less; the KIRA (rel to IStop) worked out at 0.59; the KIRA Raw (IGF-IR phosphorylation, KIRA assay on P6 cells, conditioned medium) is 45.8; the KIRA/Total IGF is 28.2.
For “gly-pro-IGF-I (glycosylated pro-IGF-IA) (from UniProt P05017 1-153) (ligand)”, the calculated IGF-IR activation (KIRA, FIG. 5B), potency against mature IGF-I (fold less potent) is 2; the calculated relative IGF-IR activation by gly-pro-IGF-I (GP), mature IGF-I set to 1.0, from the IA equation was 0.3; the calculated relative IGF-IR activation by gly-pro-IGF-I (GP), mature IGF-I set to 1.0, from the KRR equation was 0.47; the calculated relative IGF-IR activation by gly-pro-IGF-I (GP), mature IGF-I set to 1.0, mean of the IA and KRR equations was 0.38.
Substance “IGF-IKRRNN (IGF-IA with K68G, R71A, R77A, N92D, N100D; produces only pro-IGF-I) (from UniProt P05017 49-153) (ligand)” returned an IGF-IR response in Kinase Receptor Activation (KIRA) assays, against mature IGF-I of 30 % more; a KIRA (rel to IStop) of 0.93; a KIRA Raw (IGF-IR phosphorylation, KIRA assay on P6 cells, conditioned medium) of 42.6; a KIRA/Total IGF of 44.4.
Substance “IGF-IKRR (IGF-IA with K68G, R71A, R77A, cleavage blocked) (from UniProt P05017 49-153) (ligand)” displayed an IGF-IR phosphorylation per IGF molecule against mature IGF-I (KIRA, 4 experiments) of 30 % less; a KIRA (rel to IStop) of 0.61; a KIRA Raw (IGF-IR phosphorylation, KIRA assay on P6 cells, conditioned medium) of 23.6; a KIRA/Total IGF of 29.3.
In the case of “pro-IGF-I (non-glycosylated pro-IGF-IA: mature IGF-I plus EA-peptide) (from UniProt P05017 1-153) (ligand)”, the calculated relative IGF-IR activation by pro-IGF-I (P), mature IGF-I set to 1.0, from the NN equation was 0.84; the calculated relative IGF-IR activation by pro-IGF-I (P), mature IGF-I set to 1.0, mean of the NN and KRRNN equations was 0.89.

(Values after US10111934.)
